Data from patent US20160039947A1 (Eli Lilly, published 2016).

Assays:
[1] = target: T1, hEGFR-Fc (human, UniProt P00533 25-645); assay: sandwich ELISA: hHER-2-Fc coated, BsAb, hEGFR-Fc-biotin detection
T1 construct: Biotin-labelled (EZ-Link Sulfo-NHS-LC-Biotin) as detection reagent in the ELISA; unlabelled second injection in SPR; also called hEGFR-Fc-biotin; not shown: Fc part of the bought fusion protein
Experimental: (§1) Two sandwich ELISAs are developed, one for detecting anti-HER-2/anti-EGFR BsAb activity and one for detecting anti-cMET/anti-Axl BsAb activity. For both ELISAs, clear 96-well round bottom high binding Immulon microtiter plates (Greiner bio-one, cat#650061) are coated overnight at 2-8° C. with 50 μL/well 1 μg/mL hHER-2-Fc or 1 μg/mL hHGFR(cMet)-Fc (both from R&D systems) in a 50 mM Na₂CO₃ pH 8 buffer. The plates are washed 4 times with PB ST and blocked with 100 μL/well casein buffer (Pierce) for 1 hr at 37° C. The plates are then washed 4 times with PBST and the parental IgG controls or BsAb IgG test articles are added at 50 μL/well and 5 μg/mL and serially diluted 1:3 down the plate. The test articles are incubated on the plate for 1 hr at 37° C. The plates are then washed 4 times with PBST and 50 μL/well 0.2 μg/mL hEGFR-Fc-biotin or hAxl-Fc-biotin (both from R&D systems) is added for 1 hr at 37° C. The plates are then washed 4 times with PBST followed by the addition of a 50 μL/well streptavidin-HRP (Jackson Labs) diluted 1:2000 in PBST. The streptavidin-HRP is incubated in each well for 1 hr at 37° C. The plates are then washed 4 times with PBST and 100 μL/well 1-component TMB substrate is added (KPL laboratories). After approximately 10 minutes, […] 1% H₃PO₄ (in H₂O) is added to each plate to quench the reaction. Absorbance (450 nm) of every well in the plates is read using a SpectraMax UV plate reader (Molecular Devices). Biotin-labeling of the hEGFR-Fc and hAxl-Fc proteins is performed using EZ-Link Sulfo-NHS-LC-Biotin (Thermo Scientific) according to the manufacturer's protocol.

[2] = target: T2, hHGFR(cMet)-Fc (human, UniProt P08581 25-932); assay: sandwich ELISA: hHGFR(cMet)-Fc coated, BsAb, hAxl-Fc-biotin detection
T2 construct: Coated in the sandwich ELISA; second injection in SPR; not shown: Fc part of the bought fusion protein
Experimental: as §1

T2 sequence (P08581 25-932): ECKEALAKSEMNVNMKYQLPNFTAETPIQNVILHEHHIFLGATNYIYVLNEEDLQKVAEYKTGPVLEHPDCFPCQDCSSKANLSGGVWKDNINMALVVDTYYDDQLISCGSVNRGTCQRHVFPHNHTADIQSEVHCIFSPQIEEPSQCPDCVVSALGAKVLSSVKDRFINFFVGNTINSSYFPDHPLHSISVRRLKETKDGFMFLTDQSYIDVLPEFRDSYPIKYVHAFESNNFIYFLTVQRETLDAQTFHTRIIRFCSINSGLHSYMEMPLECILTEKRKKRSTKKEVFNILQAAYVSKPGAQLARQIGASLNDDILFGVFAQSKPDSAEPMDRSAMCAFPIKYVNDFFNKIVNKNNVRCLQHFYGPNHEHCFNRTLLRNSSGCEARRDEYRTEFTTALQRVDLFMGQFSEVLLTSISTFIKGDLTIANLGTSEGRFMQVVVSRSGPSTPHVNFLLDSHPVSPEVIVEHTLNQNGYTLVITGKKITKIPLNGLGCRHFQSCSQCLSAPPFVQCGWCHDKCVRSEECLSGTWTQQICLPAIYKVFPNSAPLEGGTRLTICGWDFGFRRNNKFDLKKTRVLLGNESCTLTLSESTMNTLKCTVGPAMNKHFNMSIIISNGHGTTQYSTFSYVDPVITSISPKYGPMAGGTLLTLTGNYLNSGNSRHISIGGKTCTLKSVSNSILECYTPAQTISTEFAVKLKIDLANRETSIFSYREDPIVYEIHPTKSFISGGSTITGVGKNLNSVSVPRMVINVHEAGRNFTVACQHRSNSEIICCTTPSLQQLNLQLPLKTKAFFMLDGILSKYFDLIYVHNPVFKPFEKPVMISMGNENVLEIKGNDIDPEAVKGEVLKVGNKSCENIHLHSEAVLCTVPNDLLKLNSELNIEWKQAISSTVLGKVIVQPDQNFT

Row | Binder | binding result [1] | binding result [2]
1 | HEControl λλ (anti-HER-2/anti-EGFR IgG BsAb without Fab redesigns) (bispecific antibody, The preparation held 65% correctly paired heterotetramer by LC/MS) heavy 1: EVQLVESGGGLVQPGGSLRLSCAASGFTFTDYTMDWVRQAPGKGLEWVADVNPNSGGSIYNQRFKGRFTLSVDRSKNTLYLQMNSLRAEDTAVYYCARNLGPSFYFDYWGQGTLVTVSSASTKGPSVFPLAPSSKSTSGGTAALGCLVKDYFPEPVTVSWNSGALTSGVHTFPAVLQSSGLYSLSSVVTVPSSSLGTQTYICNVNHKPSNTKVDKKVEPKSCDKTHTCPPCPAPELLGGPSVFLFPPKPKDTLMISRTPEVTCVVVDVSHEDPEVKFNWYVDGVEVHNAKTKPREEQYQSTYRVVSVLTVLHQDWLNGKEYKCKVSNKALPAPIEKTISKAKGQPREPQVYTLPPSRDELTKNQVSLTCLVKGFYPSDIAVEWESNGQPENNYDTTPPVLDSDGSFFLYSDLTVDKSRWQQGNVFSCSVMHEALHNHYTQKSLSLSPG light 1: DIQMTQSPSSLSASVGDRVTITCKASQDVSIGVAWYQQKPGKAPKLLIYSASYRYTGVPSRFSGSGSGTDFTLTISSLQPEDFATYYCQQYYIYPYTFGQGTKVEIKGQPKAAPSVTLFPPSSEELQANKATLVCLISDFYPGAVTVAWKADSSPVKAGVETTTPSKQSNNKYAASSYLSLTPEQWKSHRSYSCQVTHEGSTVEKTVAPTEC heavy 2: QVQLVQSGAEVKKPGASVKVSCKASGYTFTSHWMHWVRQAPGQGLEWIGEFNPSNGRTNYNEKFKSKATMTVDTSTNTAYMELSSLRSEDTAVYYCASRDYDYDGRYFDYWGQGTLVTVSSASTKGPSVFPLAPSSKSTSGGTAALGCLVKDYFPEPVTVSWNSGALTSGVHTFPAVLQSSGLYSLSSVVTVPSSSLGTQTYICNVNHKPSNTKVDKKVEPKSCDKTHTCPPCPAPELLGGPSVFLFPPKPKDTLMISRTPEVTCVVVDVSHEDPEVKFNWYVDGVEVHNAKTKPREEQYQSTYRVVSVLTVLHQDWLNGKEYKCKVSNKALPAPIEKTISKAKGQPREPQVYTLPPSRKELTKNQVSLTCLVKGFYPSDIAVEWESNGQPENNYKTTPPVLKSDGSFFLYSKLTVDKSRWQQGNVFSCSVMHEALHNHYTQKSLSLSPG light 2: DIQMTQSPSSLSASVGDRVTITCSASSSVTYMYWYQQKPGKAPKLLIYDTSNLASGVPSRFSGSGSGTDYTFTISSLQPEDIATYYCQQWSSHIFTFGQGTKVEIKGQPKAAPSVTLFPPSSEELQANKATLVCLISDFYPGAVTVAWKADSSPVKAGVETTTPSKQSNNKYAASSYLSLTPEQWKSHRSYSCQVTHEGSTVEKTVAPTEC | binds | –
2 | MAControl λλ (anti-cMET/anti-Axl IgG BsAb without Fab redesigns) (bispecific antibody) heavy 1: EVQLVESGGGLVQPGGSLRLSCAASGYTFTSYWLHWVRQAPGKGLEWVGMIDPSNSDTRFNPNFKDRFTISADTSKNTAYLQMNSLRAEDTAVYYCATYRSYVTPLDYWGQGTLVTVSSASTKGPSVFPLAPSSKSTSGGTAALGCLVKDYFPEPVTVSWNSGALTSGVHTFPAVLQSSGLYSLSSVVTVPSSSLGTQTYICNVNHKPSNTKVDKKVEPKSCDKTHTCPPCPAPELLGGPSVFLFPPKPKDTLMISRTPEVTCVVVDVSHEDPEVKFNWYVDGVEVHNAKTKPREEQYQSTYRVVSVLTVLHQDWLNGKEYKCKVSNKALPAPIEKTISKAKGQPREPQVYTLPPSRDELTKNQVSLTCLVKGFYPSDIAVEWESNGQPENNYDTTPPVLDSDGSFFLYSDLTVDKSRWQQGNVFSCSVMHEALHNHYTQKSLSLSPG light 1: DIQMTQSPSSLSASVGDRVTITCKSSQSLLYTSSQKNYLAWYQQKPGKAPKLLIYWASTRESGVPSRFSGSGSGTDFTLTISSLQPEDFATYYCQQYYAYPWTFGQGTKVEIKGQPKAAPSVTLFPPSSEELQANKATLVCLISDFYPGAVTVAWKADSSPVKAGVETTTPSKQSNNKYAASSYLSLTPEQWKSHRSYSCQVTHEGSTVEKTVAPTEC heavy 2: EVQLVESGGGLVQPGGSLRLSCAASGFSLSGSWIHWVRQAPGKGLEWVGWINPYRGYAYYADSVKGRFTISADTSKNTAYLQMNSLRAEDTAVYYCAREYSGWGGSSVGYAMDYWGQGTLVTVSSASTKGPSVFPLAPSSKSTSGGTAALGCLVKDYFPEPVTVSWNSGALTSGVHTFPAVLQSSGLYSLSSVVTVPSSSLGTQTYICNVNHKPSNTKVDKKVEPKSCDKTHTCPPCPAPELLGGPSVFLFPPKPKDTLMISRTPEVTCVVVDVSHEDPEVKFNWYVDGVEVHNAKTKPREEQYQSTYRVVSVLTVLHQDWLNGKEYKCKVSNKALPAPIEKTISKAKGQPREPQVYTLPPSRKELTKNQVSLTCLVKGFYPSDIAVEWESNGQPENNYKTTPPVLKSDGSFFLYSKLTVDKSRWQQGNVFSCSVMHEALHNHYTQKSLSLSPG light 2: DIQMTQSPSSLSASVGDRVTITCRASQDVSTAVAWYQQKPGKAPKLLIYSASFLYSGVPSRFSGSGSGTDFTLTISSLQPEDFATYYCQQSYTTPPTFGQGTKVEIKGQPKAAPSVTLFPPSSEELQANKATLVCLISDFYPGAVTVAWKADSSPVKAGVETTTPSKQSNNKYAASSYLSLTPEQWKSHRSYSCQVTHEGSTVEKTVAPTEC | – | binds

Next, values leading:

Row | binding result [1] | binding result [2] | Binder
3 | binds | – | HEControl λκ (anti-HER-2/anti-EGFR IgG BsAb without Fab redesigns) (bispecific antibody) heavy 1: EVQLVESGGGLVQPGGSLRLSCAASGFTFTDYTMDWVRQAPGKGLEWVADVNPNSGGSIYNQRFKGRFTLSVDRSKNTLYLQMNSLRAEDTAVYYCARNLGPSFYFDYWGQGTLVTVSSASTKGPSVFPLAPSSKSTSGGTAALGCLVKDYFPEPVTVSWNSGALTSGVHTFPAVLQSSGLYSLSSVVTVPSSSLGTQTYICNVNHKPSNTKVDKKVEPKSCDKTHTCPPCPAPELLGGPSVFLFPPKPKDTLMISRTPEVTCVVVDVSHEDPEVKFNWYVDGVEVHNAKTKPREEQYQSTYRVVSVLTVLHQDWLNGKEYKCKVSNKALPAPIEKTISKAKGQPREPQVYTLPPSRDELTKNQVSLTCLVKGFYPSDIAVEWESNGQPENNYDTTPPVLDSDGSFFLYSDLTVDKSRWQQGNVFSCSVMHEALHNHYTQKSLSLSPG light 1: DIQMTQSPSSLSASVGDRVTITCKASQDVSIGVAWYQQKPGKAPKLLIYSASYRYTGVPSRFSGSGSGTDFTLTISSLQPEDFATYYCQQYYIYPYTFGQGTKVEIKGQPKAAPSVTLFPPSSEELQANKATLVCLISDFYPGAVTVAWKADSSPVKAGVETTTPSKQSNNKYAASSYLSLTPEQWKSHRSYSCQVTHEGSTVEKTVAPTEC heavy 2: QVQLVQSGAEVKKPGASVKVSCKASGYTFTSHWMHWVRQAPGQGLEWIGEFNPSNGRTNYNEKFKSKATMTVDTSTNTAYMELSSLRSEDTAVYYCASRDYDYDGRYFDYWGQGTLVTVSSASTKGPSVFPLAPSSKSTSGGTAALGCLVKDYFPEPVTVSWNSGALTSGVHTFPAVLQSSGLYSLSSVVTVPSSSLGTQTYICNVNHKPSNTKVDKKVEPKSCDKTHTCPPCPAPELLGGPSVFLFPPKPKDTLMISRTPEVTCVVVDVSHEDPEVKFNWYVDGVEVHNAKTKPREEQYQSTYRVVSVLTVLHQDWLNGKEYKCKVSNKALPAPIEKTISKAKGQPREPQVYTLPPSRKELTKNQVSLTCLVKGFYPSDIAVEWESNGQPENNYKTTPPVLKSDGSFFLYSKLTVDKSRWQQGNVFSCSVMHEALHNHYTQKSLSLSPG light 2: DIQMTQSPSSLSASVGDRVTITCSASSSVTYMYWYQQKPGKAPKLLIYDTSNLASGVPSRFSGSGSGTDYTFTISSLQPEDIATYYCQQWSSHIFTFGQGTKVEIKRTVAAPSVFIFPPSDEQLKSGTASVVCLLNNFYPREAKVQWKVDNALQSGNSQESVTEQDSKDSTYSLSSTLTLSKADYEKHKVYACEVTHQGLSSPVTKSFNRGEC
4 | – | binds | MADesign λλ (anti-cMET/anti-Axl IgG BsAb with Fab redesigns) (bispecific antibody, also called MA Designs) heavy 1: EVQLVESGGGLVQPGGSLRLSCAASGYTFTSYWLHWVRKAPGKGLEWVGMIDPSNSDTRFNPEFKDRFTISADTSKNTAYLQMNSLRAEDTAVYYCATYRSYVTPLDYWGQGTLVTVSSASTKGPSVFPLAPSSKSTSGGTAALGCLVKDYFPEPVTVSWNSGALTSGVATGPAVLQSSGLYSLSSVVTVPSSSLGTQTYICNVNHKPSNTKVDKKVEPKSCDKTHTCPPCPAPELLGGPSVFLFPPKPKDTLMISRTPEVTCVVVDVSHEDPEVKFNWYVDGVEVHNAKTKPREEQYQSTYRVVSVLTVLHQDWLNGKEYKCKVSNKALPAPIEKTISKAKGQPREPQVYTLPPSRDELTKNQVSLTCLVKGFYPSDIAVEWESNGQPENNYDTTPPVLDSDGSFFLYSDLTVDKSRWQQGNVFSCSVMHEALHNHYTQKSLSLSPG light 1: RIQMTQSPSSLSASVGDRVTITCKSSQSLLYTSSQKNYLAWYQDKPGKAPKLLIYWASTRESGVPSRFSGSGSGTDFTLTISSLQPEDFATYYCQQYYAYPWTFGQGTKVEIKGQPKAAPSVTLFPPSSEELQANKATLVCYISDFYPGAVTVAWKADSSPVKAGVETTTPSKQSNNKYAAWSYLSLTPEQWKSHRSYSCQVTHEGSTVEKTVAPTEC heavy 2: EVQLVESGGGLVQPGGSLRLSCAASGFSLSGSWIHWVRYAPGKGLEWVGWINPYRGYAYYADSVKGRFTISADTSKNTAYLQMNSLRAEDTAVYYCAREYSGWGGSSVGYAMDYWGQGTLVTVSSASTKGPSVFPLAPSSKSTSGGTAALGCLVKDYFPEPVTVSWNSGALTSGVHTFPAVLQSSGLYSLSSVVTVPSSSLGTQTYICNVNHKPSNTKVDKKVEPKSCDKTHTCPPCPAPELLGGPSVFLFPPKPKDTLMISRTPEVTCVVVDVSHEDPEVKFNWYVDGVEVHNAKTKPREEQYQSTYRVVSVLTVLHQDWLNGKEYKCKVSNKALPAPIEKTISKAKGQPREPQVYTLPPSRKELTKNQVSLTCLVKGFYPSDIAVEWESNGQPENNYKTTPPVLKSDGSFFLYSKLTVDKSRWQQGNVFSCSVMHEALHNHYTQKSLSLSPG light 2: DIQMTQSPSSLSASVGDRVTITCRASQDVSTAVAWYQRKPGKAPKLLIYSASFLYSGVPSRFSGSGSGTDFTLTISSLQPEDFATYYCQQSYTTPPTFGQGTKVEIKGQPKAAPSVTLFPPSSEELQANKATLVCLISDFYPGAVTVAWKADSSPVKAGVETTTPSKQSNNKYAASSYLSLTPEQWKSHRSYSCQVTHEGSTVEKTVAPTEC
